The values that follow come from PMC11623927, “Synthesis and biological assessment of chalcone and pyrazoline derivatives as novel inhibitor for ELF3-MED23 interaction” (eLife, 2024).

In test [1] the target is T1, MED23 (mediator of RNA polymerase II transcription subunit 23) (Homo sapiens, UniProt Q9ULK4).
T1 construct: (His)6-MED23_391-582; with ELF3 (FITC-labeled ELF3_129-145 peptide)
In words: cell-free fluorescence polarization displacement of FITC-ELF3_[…]-145 from (His)6-MED23_[…]-582. It is filed as binding. On the technique in general: In fluorescence polarisation assays a small probe gives low polarisation when free and higher when bound to something large.

In test [2] the target is T2, (His)6-MED23_(391-582) protein (UniProt Q9ULK4 391-582).
T2 chain: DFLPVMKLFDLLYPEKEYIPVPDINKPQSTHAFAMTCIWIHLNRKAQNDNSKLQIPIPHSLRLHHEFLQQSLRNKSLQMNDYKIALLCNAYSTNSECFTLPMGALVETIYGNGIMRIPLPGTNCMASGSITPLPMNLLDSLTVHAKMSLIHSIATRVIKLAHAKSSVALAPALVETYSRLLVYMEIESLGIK
Nature of the test: FP; competition with FITC-ELF3(129-145).

Test [3] deals with T3, (His)6-MED23_(391-582) protein (UniProt Q9ULK4 391-582).
T3 construct: MED23 (mediator of RNA polymerase II transcription subunit 23), residues 391-582
T3 sequence (looked up): T2 chain
In words: fluorescence polarisation; cell-free displacement; varying concentrations of unlabeled ELF3(137-144) peptide added to 80 nM (His)6-MED23(391-582) and 10 nM FITC-ELF3(129-145); Ki from IC50 by the Cheng-Prusoff equation; n=3. The settings on record: both partners purified.

For test [4], the target named is T3, (His)6-MED23_(391-582) protein. In words: fluorescence polarisation; cell-free; different concentrations of (His)6-MED23(391-582) with 10 nM FITC-ELF3(129-145) in assay buffer; least-squares non-linear fit; n=3. The settings on record: both partners purified.
In a further test the target is T4, Cluc-MED23_(391-582) (UniProt Q9ULK4 391-582).
T4 construct: MED23 residues 391-582; also called MED23_(391-582) fragment fused with Cluc; source: HEK293, transfected, in cells
T4 sequence (looked up): T2 chain
In words: split reporter (BiFC, NanoBiT); split firefly luciferase complementation in HEK293 co-transfected with Nluc-ELF3 and Cluc-MED23(391-582); without compound 10. The settings on record: partners not purified.

Ends that are not written are not given here.

In the case of `COc1ccc(/C=C/C(=O)c2cc(OC)c(OC)c(OC)c2)cc1OCC=C(C)C` [compound 10, (E)–3-(4-Methoxy-3-((3-methylbut-2-en-1-yl)oxy)phenyl)–1-(3,4,5-trimethoxyphenyl) prop-2-en-1-one], the affinity in test [1], expressed as Ki, was 680 ± 80 nM.

B1: unlabeled ELF3_(137-144) peptide (peptide, UniProt P78545 137-144, looked up)
peptide: SWIIELLE
notes: ELF3 residues 137-144 (S137 to E144), within the TAD domain; Positive control of the FP displacement assay
With B1, the 50% inhibitory concentration (IC50) (in general, the midpoint of a concentration-inhibition curve) in test [2] was determined as 8.81 µM. The inhibition constant Ki (as a rule, the dissociation constant of the complex between target and ligand, obtained from inhibition or displacement) in test [3] worked out at 4.47 µM.

On to TSSSSDELSWIIELLEK (peptide, UniProt P78545 129-145, looked up, also: FITC label, position not given here, also called ELF3-FITC peptide (17 a.a.)) [fluorescein isothiocyanate (FITC)-labeled ELF3_(129-145) peptide], for which, in test [4], the equilibrium dissociation constant (Kd) (commonly a measure of binding affinity in units of concentration) turned out to be 10.2 nM.

B2: Nluc-ELF3WT (natural protein, UniProt P78545 1-371, looked up)
chain: MAATCEISNIFSNYFSAMYSSEDSTLASVPPAATFGADDLVLTLSNPQMSLEGTEKASWLGEQPQFWSKTQVLDWISYQVEKNKYDASAIDFSRCDMDGATLCNCALEELRLVFGPLGDQLHAQLRDLTSSSSDELSWIIELLEKDGMAFQEALDPGPFDQGSPFAQELLDDGQQASPYHPGSCGAGAPSPGSSDVSTAGTGASRSSHSSDSGGSDVDLDPTDGKLFPSDGFRDCKKGDPKHGKRKRGRPRKLSKEYWDCLEGKKSKHAPRGTHLWEFIRDILIHPELNEGLMKWENRHEGVFKFLRSEAVAQLWGQKKKNSNMTYEKLSRAMRYYYKREILERVDGRRLVYKFGKNSSGWKEEEVLQSRN
notes: ELF3, full-length cDNA, wild type; source: HEK293, transfected, in cells
For B2, the “fold change of bioluminescence vs. control” value with Cluc-MED23_(391-582) was found to be 32.7 fold.
